Data: PMC6319916 (Biochemistry, 2018)

B1: 3-hydroxy-3-methylglutaryl coenzyme A reductase (DaHMGR) (Delftia acidovorans SPH-1) (protein)
chain: MVADSRLPNFRALTPAQRRDFLADACGLSDAERALLAAPGALPLALADGMIENVFGSFELPLGVAGNFRVNGRDVLVPMAVEEPSVVAAASYMAKLAREDGGFQTSSTLPLMRAQVQVLGVTDPHGARLAVLQARAQIIERANSRDKVLIGLGGGCKDIEVHVFPDTPRGPMLVVHLIVDVRDAMGANTVNTMAESVAPLVEKITGGSVRLRILSNLADLRLARARVRLTPQTLATQDRSGEEIIEGVLDAYTFAAIDPYRAATHNKGIMNGIDPVIVATGNDWRAVEAGAHAYASRSGSYTSLTRWEKDAGGALVGSIELPMPVGLVGGATKTHPLARLALKIMDLQSAQQLGEIAAAVGLAQNLGALRALATEGIQRGHMALHARNIALVAGATGDEVDAVARQLAAEHDVRTDRALEVLAALRARA

How the values were obtained:
[1] = target: T1, 3-hydroxy-3-methylglutaryl coenzyme A reductase (DaHMGR) (Delftia acidovorans, UniProt A9BQX8); experiment: X-ray crystal structure; type: binding
T1 sequence (A9BQX8 1-429): B1 chain

purified protein = substrate: CC(C)(COP(=O)(O)OP(=O)(O)OC[C@H]1O[C@@H](n2cnc3c(N)ncnc32)[C@H](O)[C@@H]1OP(=O)(O)O)[C@@H](O)C(=O)NCCC(=O)NCCSC(=O)C[C@@](C)(O)CC(=O)O; experiment: purified protein; settings: NADH

Molecule | X-ray crystal structure (1.49 Å) [1] | Km (purified protein) | kcat (purified protein) | kcat/Km (purified protein)
C[C@@](O)(CCO)CC(=O)O [mevalonate] | in the mevalonate-bound DaHMGR structure, positive difference maps showed density in the active site, representing mevalonate binding | – | – | –
B1 | – | 7.34 ± 0.71 µM | 22.3 s⁻¹ | 3.04e+06 M⁻¹ s⁻¹
